Data taken from article PMC7233811, “Small molecule inhibits T-cell acute lymphoblastic leukaemia oncogenic interaction through conformational modulation of LMO2” (Oncotarget, 2020).

Columns and labels:
[1] = target: SCL/E2A complex (Homo sapiens) (UniProt P17542); assay: given as Ka; settings: cited from earlier work
[2] = target: T1, LMO2 (LIM only protein 2) (Homo sapiens, UniProt P25791); assay: microscale thermophoresis (NT647-labelled protein); supported by STD-NMR, SAXS and HTRF PPI inhibition (IC50 […]); assay type: binding
T1 construct: tandem LIM-domain construct of LMO2 fused to the LDB1^LID (FLINC2); with LDB1 LID (fused)
T1 sequence (P25791 30-153 limits assumed): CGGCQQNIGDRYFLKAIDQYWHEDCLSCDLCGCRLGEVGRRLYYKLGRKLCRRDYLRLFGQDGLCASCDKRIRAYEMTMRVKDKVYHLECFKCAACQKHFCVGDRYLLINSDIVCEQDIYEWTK
T1 sequence (Q86U70 336-375 partner limits assumed): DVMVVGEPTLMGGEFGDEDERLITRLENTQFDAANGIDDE

LMO2, sequence (P25791 whole entry, the tested form may be a part): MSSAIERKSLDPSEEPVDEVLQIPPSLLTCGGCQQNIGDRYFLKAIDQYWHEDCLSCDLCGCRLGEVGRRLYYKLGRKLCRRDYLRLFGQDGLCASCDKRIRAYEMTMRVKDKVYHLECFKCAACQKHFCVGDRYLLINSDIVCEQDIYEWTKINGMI
SCL/E2A complex (Homo sapiens), sequence (P17542 whole entry, chain 1 of 2): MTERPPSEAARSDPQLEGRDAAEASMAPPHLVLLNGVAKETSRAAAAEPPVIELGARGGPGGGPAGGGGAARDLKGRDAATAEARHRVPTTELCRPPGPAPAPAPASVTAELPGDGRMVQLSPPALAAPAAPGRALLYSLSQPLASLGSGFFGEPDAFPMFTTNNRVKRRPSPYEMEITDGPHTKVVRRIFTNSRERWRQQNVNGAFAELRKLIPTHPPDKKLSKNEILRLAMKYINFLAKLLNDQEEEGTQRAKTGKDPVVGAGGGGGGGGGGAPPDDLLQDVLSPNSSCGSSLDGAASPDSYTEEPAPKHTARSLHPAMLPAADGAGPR
SCL/E2A complex (Homo sapiens), sequence (P15923 whole entry, chain 2 of 2, further chain): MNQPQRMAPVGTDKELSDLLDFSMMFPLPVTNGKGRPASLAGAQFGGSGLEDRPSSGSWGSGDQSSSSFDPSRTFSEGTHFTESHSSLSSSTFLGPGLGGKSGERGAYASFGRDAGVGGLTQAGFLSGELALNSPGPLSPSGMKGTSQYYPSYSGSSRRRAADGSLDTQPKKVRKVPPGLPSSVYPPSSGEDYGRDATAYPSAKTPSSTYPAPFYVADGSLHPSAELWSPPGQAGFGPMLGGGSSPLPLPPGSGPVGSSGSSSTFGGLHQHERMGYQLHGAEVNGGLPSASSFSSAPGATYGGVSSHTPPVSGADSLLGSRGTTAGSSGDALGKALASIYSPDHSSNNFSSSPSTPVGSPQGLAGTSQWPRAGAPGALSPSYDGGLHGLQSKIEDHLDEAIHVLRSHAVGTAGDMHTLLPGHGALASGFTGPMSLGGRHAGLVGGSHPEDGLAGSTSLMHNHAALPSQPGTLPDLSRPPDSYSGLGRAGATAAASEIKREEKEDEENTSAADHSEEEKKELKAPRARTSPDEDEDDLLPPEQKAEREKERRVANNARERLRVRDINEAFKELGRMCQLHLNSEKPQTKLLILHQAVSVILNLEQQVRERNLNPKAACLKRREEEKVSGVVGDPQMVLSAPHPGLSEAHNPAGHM

Row | Compound | Kd [1] | Kd [2]
1 | LMO2 (from UniProt P25791) | 5.56 nM | 
2 | Cc1cc(C)cc(C2(C(=O)N3CCOCC(Cc4ccc5nccn5c4)C3)CCOCC2)c1 (centres unmarked) [3K7] |  | 1200 nM
